Data set [1] can be described thus: Plasma stability in human plasma (LCMS, percent remaining). It counts as in vitro ADME. To be noted: 37° C., 2 hours incubation, read-out: T1/2 plasma stability. As for the experimental part: (§1) With reference to FIGS. 6A and 6B, plasma stability […] of CCP1-GN4 was measured at WuXi Biologics. The compound was incubated in human, rat, or mouse plasma at 37° C. for 2 hours. Aliquots were taken at various time points and the percent remaining of CCP1-GN4 was quantified by LCMS. For plasma protein binding (PPB), the compound (CCP1-GN4) was incubated with human, rat, or mouse plasma protein and the degree of plasma protein binding was determined by ultracentrifugation and LCMS.

The nature of data set [2]: Plasma stability in rat plasma (LCMS, percent remaining). It counts as in vitro ADME. To be noted: 37° C., 2 hours incubation, read-out: T1/2 plasma stability. How it is done:
as §1

The target in data set [3] is mouse anti-citrullinated epitope recombinant antibody clone 12G1 (anti-CCP1). The data set is described as follows: SPR binding of CCP1-GN4 to immobilized anti-CCP1 antibody (Biacore S200, steady state affinity). To be noted: antibody clone 12G1 immobilized on CM5 chip, 25° C., steady state affinity model, read-out: KD (anti-CCP). How it is done: With reference to FIG. 5A, binding of CCP1-GN4 was assessed using a surface plasmon resonance (SPR) on a Biacore S200 instrument. Prior to binding studies, 20 μg/mL mouse anti-citrullinated epitope recombinant antibody clone 12G1 (anti-CCP1) (Creative BioLabs) was immobilized to a Series S Sensor Chip CM5 using amine coupling to a target of 1.000 response units (RU) in 10 mM sodium acetate buffer pH 5.5. In parallel, normal human IgG isotype control (R&D Systems) was immobilized as a reference subtraction control using identical conditions. Sensor chips and reagents necessary for amine coupling were purchased from Cytiva.
CCP1-GN4 was serially diluted in 100% DMSO and transferred to a 96-well microplate. 1×HBS-P buffer (Cytiva) was added to dilute sample to final test concentrations (1000 nM, 250 nM, 62.5 nM, 15.6 nM, 3.9 nM, 1 nM) in 1% DMSO. A solution of 1×HBS-P (Cytiva) containing 1% DMSO was prepared as running buffer immediately prior to binding experiments.
Samples were injected over the sensor chip with a contact time of 300 seconds, dissociation time of 600 seconds, and a flow rate of 30 μL/minute at 25° C. Between injections, a solution containing 50% DMSO in 1×HBS-P buffer was used to wash any remaining bound analyte from the sensor chip surface. […]
(SPR reads the build-up and loss of mass on a sensor chip optically.)

Data set [4] deals with T1, recombinant biotin-ASGPR1 (Homo sapiens, UniProt P07306).
T1 construct: purchased Viva Biotech
T1 sequence (P07306 1-291): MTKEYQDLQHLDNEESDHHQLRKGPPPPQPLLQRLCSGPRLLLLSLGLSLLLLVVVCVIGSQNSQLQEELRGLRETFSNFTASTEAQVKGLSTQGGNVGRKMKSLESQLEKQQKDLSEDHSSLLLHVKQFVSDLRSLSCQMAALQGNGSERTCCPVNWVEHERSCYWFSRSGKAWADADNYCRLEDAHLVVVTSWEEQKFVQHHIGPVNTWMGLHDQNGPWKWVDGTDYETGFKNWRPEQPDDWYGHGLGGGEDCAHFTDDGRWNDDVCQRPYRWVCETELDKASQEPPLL
The data set is described as follows: SPR binding to ASGPR1 (Biacore 8K). How it is done: With reference to FIG. 5B, binding to ASGPR1 was characterized by surface plasmon resonance (SPR) on a Biacore 8K instrument. Preceding binding measurement, recombinant biotin-ASGPR1 (Viva Biotech) was diluted to a concentration of 2 μg/mL in a buffer containing 20 mM Tris pH 8.0, 200 mM NaCl, 1 mM TCEP, 2 mM CaCl2), and 0.01% Tween-20. A Sensor Chip SA (Cytiva) was conditioned with three injections of 1 M NaCl in 50 mM NaOH prior to capturing […] ASGPR on the sensor chip surface. Capture was performed at a flow rate of 5 μL/min with a target level of 1000 RU. CCP1-GN4 was serially diluted across 10 points to final test concentrations (25 nM, 8.3 nM, 2.8 nM, 0.93 nM, 0.3 nM, 0.1 nM, 0.03 nM, 0.01 nM, 0.004 nM, 0.0013 nM) in buffer composed of 20 mM Tris pH 8.0, 200 mM NaCl, 1 mM TCEP, 2 mM CaCl2), 0.01% Tween-20, and a final solvent composition of 3% DMSO.
Samples were injected over the sensor chip surface with a contact time of 180 seconds, dissociation time of 600 seconds, flow rate of 40 μL/min and temperature of 25° C. Data files were fit to multi-cycle kinetics and steady state models using Biacore Insight Evaluation software to determine kinetic and affinity binding parameters.

The nature of data set [5]: Plasma stability in mouse plasma (LCMS, percent remaining). The settings on record: 37° C., 2 hours incubation, read-out: T1/2 plasma stability. It counts as in vitro ADME. How it is done: as §1
Data set [6] concerns the target mouse anti-citrullinated epitope recombinant antibody clone 12G1 (anti-CCP1) (Creative BioLabs).
For data set [7], the target named is recombinant biotin-ASGPR1 (Viva Biotech). Briefly: SPR (Biacore 8K), biotin-ASGPR1 captured on Sensor Chip SA, CCP1-GN4 as analyte, multi-cycle kinetics, 1:1 binding model, 25 C.
Data set [8] has the same target. Briefly: SPR (Biacore 8K), biotin-ASGPR1 captured on SA chip, CCP1-GN4 as analyte, multi-cycle kinetics and steady state models.
Data set [9] has as its target mouse anti-citrullinated epitope recombinant antibody clone 12G1 (anti-CCP1) (Creative BioLabs). Briefly: SPR (Biacore S200), antibody 12G1 amine-coupled on CM5, CCP1-GN4 as analyte, steady state affinity model.

Bridge positions count the residues as written; N and C are the ends. Square brackets hold non-standard residues; d marks the D form. Ends that are not written are not given here. Cit = NC(=O)NCCC[C@H](N)C(=O)O

The term Kd denotes the constant that tells how readily two partners part at equilibrium. For the molecule `CC(=O)N[C@H]1[C@H](OCCOCCOCCNC(=O)CCOCC(COCCC(=O)NCCOCCOCCO[C@@H]2O[C@H](CO)[C@H](O)[C@H](O)[C@H]2NC(C)=O)(COCCC(=O)NCCOCCOCCO[C@@H]2O[C@H](CO)[C@H](O)[C@H](O)[C@H]2NC(C)=O)NC(=O)CNC(=O)CCOCCOCCOCCOCc2cn(CC[C@H](N)C(=O)N[C@@H](Cc3c[nH]cn3)C(=O)N[C@@H](CCC(N)=O)C(=O)N[C@H]3CSSC[C@@H](C(=O)NCC(=O)N[C@@H](CCCNC(=N)N)C(=O)N[C@@H](CO)C(=O)NCC(=O)N[C@@H](CO)C(=O)O)NC(=O)[C@H](CCCNC(=N)N)NC(=O)CNC(=O)[C@H](CCCNC(=N)N)NC(=O)[C@H](CO)NC(=O)[C@H](CCCNC(=N)N)NC(=O)CNC(=O)[C@H](CCCNC(N)=O)NC(=O)[C@H]([C@@H](C)O)NC(=O)[C@H](CO)NC(=O)[C@H](CCC(=O)O)NC(=O)[C@H](CCC(N)=O)NC(=O)[C@H](Cc4c[nH]cn4)NC3=O)nn2)O[C@H](CO)[C@H](O)[C@@H]1O` [CCP1-GN4], the half-life in [1], in [2] and in data set [5] was > 4.83 h throughout. Further, the Kd in data set [3] came out at 75 nM; in [4] it was 1.92 nM.

B1: CCP1-GN4 (peptide)
peptide: HQCHQEST[Cit]GRSRGRCGRSGS-OH
modifications: disulfide 3-16; not fully specified (N-terminus); also: Dab(N3) side-chain azide joined by CuAAC triazole to Target A001A-PEG4-Alkyne (tri-GalNAc)
In general, koff refers to a measure of how fast the partners let go of each other. A word on the kon: it is the rate constant with which the complex forms. As to B1, in data set [6], the EC50 (read off the curve); Anti-CCP1 MFI of 12G1 with goat anti-mouse AF488 in HEK-293-ASGPR cells came to 50 nM. Moreover, in [7], the koff came to 0.029 s⁻¹. In data set [7], the kon came out at 1.51e+07 M⁻¹ s⁻¹. Besides, the results for the Kd in [8] and in data set [9] were 1.92 nM and 75 nM, respectively.

The record behind these values is patent publication US20260224727A1, “COMPOUNDS AND METHODS FOR TREATING, AMELIORATING, OR […]” (Yale University, priority 2023, published 2026).
